Biological target: T1, CLEC12A K form (Homo sapiens, UniProt Q5QGZ9)
T1 construct: transfected with full-length CLEC12A (UniProt Q5QGZ9-1) cDNAs; host or cells: HEK-293T
T1 sequence (Q5QGZ9 1-275 isoform Q5QGZ9-1): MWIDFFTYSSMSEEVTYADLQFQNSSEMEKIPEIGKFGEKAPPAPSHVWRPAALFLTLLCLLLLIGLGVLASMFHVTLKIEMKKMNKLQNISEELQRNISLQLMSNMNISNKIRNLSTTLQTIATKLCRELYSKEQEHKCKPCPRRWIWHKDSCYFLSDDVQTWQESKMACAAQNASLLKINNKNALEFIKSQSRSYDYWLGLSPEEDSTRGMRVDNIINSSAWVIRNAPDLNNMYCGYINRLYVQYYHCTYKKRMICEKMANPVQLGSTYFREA
Assay: Flow cytometry binding to HEK-293T cells transfected with CLEC12A amino acid 254 K version
Conditions: FIG. 19
Description: Given the unique binding properties of VHH clone 2H3 relative to the anti-CLEC12A scFv we tested the binding properties of a biparatopic fusion protein containing both the VHH clone 2H3 and an anti-CLEC12A scFv. HEK-293T cells were transfected with full-length CLEC12A (UniProt Q5QGZ9-1) cDNAs expressing the amino acid 254 “K” version of CLEC12A (GenScript) or a version with “Q” at this position generated by mutagenesis. The cells were removed with Accutase and washed with PBS, suspended in 50 μL FACS buffer (FB, PBS+1% BSA and 0.1% sodium azide) and blocked with human Fc block (Becton Dickinson) at room temperature for 10 minutes. Then, 50 μl of the purified fusion proteins #186, #330 or #357 diluted in FACS buffer (starting at 3 μg/ml with 3 fold dilutions) were added. The cell/fusion protein mixture was incubated for 30 minutes at 4° C. and then washed twice with FACS buffer. The cells were suspended in 100 μl of FACS buffer, stained with HIB19-PE (BioLegend […]), and incubated for 30 minutes at 4° C. The cells were washed twice with FACS buffer, fixed with a final concentration of 1% PFA in PBS (Thermo Scientific) and then analyzed by flow cytometry.

B1: #330: fusion protein comprised of a CD19 variant and an anti-CLL-1 VHH (2H3); SEQ ID NO:305 (protein)
chain: MEFGLSWVFLVALFRGVQCQVQLQESGGGLVQAGGSLRLSCVASGSIRSINVMGWYRQAPGKQRELVAACASDGNTYYADSVKGRFTISRDNAEKTVYLQMNNLKPDDTAVYYCDANSRGNYYSGQGTQVTVSSTSGPGGQGAGGGGSGGGGSGGGGSGGGGSPEEPLVVKVEEGDTAALWCLKGTSDGPTQQLTWSRESPLKPFLKYSLGVPGLGVHVRPDAISVVIRNVSQQMGGFYLCQPGPPSEKAWQPGWTVNVEGSGELFRWNVSDLGGLGCGLKNRSSEGPSSPSGKLMSPKLYVWAKDRPEIWEGEPPCLPPRDSLNQSLSRDLTVAPGSTLWLSCGVPPDSVSRGPLSWTHVHPKGPKSLLSLELKDDRPARDMWVMGTSLMLPRATAQDAGKWYCHRGNLTMSFHLEITARPSRHHHHHH
binding to the K form of CLEC12A: very weakly
binding to the K form weaker than to the Q form: greater than 10,000 fold

— patent publication US20220387487A1, “COMPOSITIONS AND METHODS FOR TREATMENT OF CANCER” (Aleta Biotherapeutics Inc., priority 2019, published 2022)
